Target: GST-tchvs10a1 fusion protein (plasmid pGEX-4T-2-S10A1) (human)
Assay: BIAcore (SPR); GST-tchvs10a1 captured on anti-GST antibody as ligand, GST-SR-BI at 200 nM as analyte

GST-SR-BI cytoplasmic domain fusion protein (plasmid pGEX-4T-1-7-5j) (from UniProt Q8WTV0)
response (RU): 220 RU

— US6008014
